The nanobody polyreactivity screen of Harvey et al. (2022)

Experiment: yeast display, Sf9 membrane polyspecificity reagent, FACS + sequencing; frameworks hold sequencing errors
Procedure, shortened: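 Galactose-induced (36–48 hours) yeast carrying a synthetic nanobody display library were exposed to 10% biotinylated, detergent-solubilized Sf9 membrane reagent at 4 °C for 1 hour. FACS followed streptavidin microbead enrichment, using low and high (top ~1%) gates for expression (anti-HA) and reagent binding (streptavidin). Colony PCR, MiSeq 2 × 250 sequencing and CDR-length filtering followed. Labels for polyreactivity reflect the gate of origin.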

| Sequence | polyreactivity (PSR sort gate) |
| --- | --- |
| QVQLVESGGGLVQAGGSLRLSCAASGSTFVLNAMGWDRQAPGKERELVAAITRDGRTYYADSVKGRFTISRDNAKNTVYLQMNSLKPEDTAVYYCARPARYSYGDGYWGQGTQVTVSS | low polyreactivity |
| QVLLQESGGCLVQAGGSMRLSCAASGYISSWYPMGWYRQAPGKEREFVATIAPGATTYYADSVKGRFTISRDYAKTTVYLQMNSLKPEDTAVSYCAAGPENNDFYSYWGQGTQVTVSR | low polyreactivity |
| QVQLVESGGGLVQAGGSLRLSCAASGIFVSDAMGWYSQAPGKVRELVAAIRYSGDSTYYADSVKGRFTISRDNAKNTVYLQMNSLKPEDTAVYYCAATKGWTRYEYWGQGTQVTVSS | low polyreactivity |
| QVQLVESGGGLVQAGGSLRLSCAASGYTFSQNAMGWYRPAPGKERELVAGITTRGTTTYYADSVKGRFTISRDNAKNTVYLQMNSLKPEDTAVYYCAADNSYTDNYWGQGTQVTVSS | low polyreactivity |
| QVQLVESGGGLVRAGGSLRLSCAASGFVYYVMGWYRQAPGKERELVAAISKGGGRTYYADSVKGRFTISRDNAKNTVYLQMNSLKPEDTAVYYCAAAFWRITRYGMDYWGQGTQVTVSS | high polyreactivity |
| QVQLVESGGGLVQAGGSIRLSCAASGRTFDPYSRGWYRQAPGKERELVAAISRSGGSTYYADSVKGRFTISRDNAKNTVYLQLNSLKPEDTAVYYFDADASRYYYEYDYWGQGTQVNVSS | high polyreactivity |
| QVQLVESGGGLVQAGGSLRLSCAASGLIFYYYAMGWYRQAPGKERELVAAITGSGGSTYYADSVKGRFTISRDNAKNTVYLQMNSLKPEDTAVYYCAADGIYTYEYWGQGTQVTVSS | low polyreactivity |
| QVQLVESGGGLVQAGGSLRLSCAASGSTFRTYAMGWYRQAPGKEREFVAAIRYNGGSTYYADSVKGRFTISLDNAKNTVYLQMNSLKPEDTAVYYCAAATYYYRVSWLWYYLDDYWGQGTQVTVSS | high polyreactivity |
| QFQLVESGGGLVQAGGSLRLSCAASGFIDNTMGWYRQAPGKQRELVATISWSDGSTYYADSVKGRFTISRDNAKITVYLLMNSLKPEDTAVYYCAATTDALVGRPRYDYWGQGTQVTVSS | low polyreactivity |
| QVQLVESGGGLVQAGGSLRLRCAASGFIFDYYAMGWYRQAPGKEWELVAGISWSGGSTYYADSVKGRFTISRDNAKNTVYLQMNSLKPEDTAVYYCATDDYLVIFEYDYWGQGTQVTVSS | low polyreactivity |
| QVQLVESGGGLVQAGGSLSLSCAASGSTFNHYAMGWYSPAPGKERELVAAISSRGGSTHYADSVKGRFTISRDNAKNTVYLQMNSLKPEDTAVYDCARDTDPQSSRSSDYDYWGQGTQVTVSS | low polyreactivity |
| QVQLVESGGGLVQAGGSLRLSCAASGFIFNIYAMGWYRQAPGKERELVAAITFSGGSTYYADSVKGRFTISRDNAKNTVYLQKNSLKPEDTAVYYCAADYLSEYTTYDYWGQGTQVTVSS | low polyreactivity |
| QVQLVESGGGLVQAGGSLRLSCAASGRIFDWNMGWYRQAPGKDRELVAGITFSVDSTYYADSVKGRFTISRDNAKNTVYLQMNSLKPEDTAYWGQGTQVTVST | low polyreactivity |
| QVQLVESGGGLVQAGGSLRLSCAASGRTLYKYAMGWYRQAPGKERELVAAISRNGGSTYYADSVKGRFTISRDNAKNTVYLQMNSLKPEDTAVYYCNALSRYRIWSYGYWGQGTQVTVSS | high polyreactivity |
| QVQLVESGGGLVQAGGSLRLSCAASGSTFYRYAMGWYRQAPGKEREFVAAITGSGGRTYYADSVKGRFTISRDNAKNTVYLQMNSLKPEDTAVYYCAARYYYFYQISYRYDYWGQGTQVTVSS | high polyreactivity |
| QVQLVESCGGLVQAGGSLRLSCAASGRTFVTYAMGWYRQAPGKERELVAAISKRGSRTYYAYSVKGRFTISRDNAKNTVYLQMNSLKPEDTAVYYCNADPYRTSYDYWGQGTQVTVSS | high polyreactivity |
| QVQLVESGGGLVQAGGSLRLSCAASGFIFYYYDMGWYRQAPGKERELVAAITYDGGSTYYADSVKGRFTISRDNAKNTVYLQMNSLKPEDTAVYYCNAVYGQYYDYWGQGTQVTVSS | low polyreactivity |
| QVQLVDSGGGLVQAGGSLRLSCAASGRTFHKYAMGWYRQAPGKERELVAAISNGGRTYYADSVKGRFTISRDNAKNTLYLQMNSLKPEDTAVYYCNADRTWKGRQYDYWGQGTQVTVSS | high polyreactivity |
| QVHLVESGGGLVHAGGSLRLSSAASGFIFRYYAMGWYRQAPGKERELVAAITSLGGRTYYADSVNGRFTISRDYAKNTVYLQMNSLKPEDTAVFYCAKSTRGTYDMGFWGQVTQVTVSS | high polyreactivity |
| QVQLQESGGGLVQAGGSLRLSSAASGTISVHATMGWYRQAPGKERELVAGITDGANTYYADSVKGRFTISRDNSKNTEYLQMNSLKPEDTAVYYCAAYYGTVVHFTYWGQGTQVTVSS | low polyreactivity |
| QVQLVESGGGLVQAGGSLRLSCAASGFIFRQNAMGWYRQAPGKEWELVARITWNGGRTYYADSVKGRFTISRDNAKNTVYLQMHSLKPEDTAVYYCNAVYWGYGKYDYWGQGTQVTVSS | high polyreactivity |

| Sequence | polyreactivity (PSR sort gate) |
| --- | --- |
| QVQLVESGGGLVQAGGNLRLSCAASGSIFYWNAMGWYRQAPGKERELVAAINYSGDSTYYADSVKVRFTISRDNAKNTVYLQMNSLKPEDTAVYYCNFDYWGQGSQVTVSS | low polyreactivity |
| QVQLVESGGGLVQAGGSLRLSCAASGRTFRGNAMGWYRQAPAKDRELVGAGGSTYYADSVKGRFTISRDNAKNTVYLQMNSLKPEASAVYYCGAALGFSRYSWFGYGYWGQGTQVTVSS | low polyreactivity |
| QVQHVESGGGLVQAGGSLRLTCAASGFIFVIYAMGWYRTAPGKERELVAAITESGDRTYYADSVKGGFTISRDNAKNTVYLQMNSLKPEDTAVYYCNALLSYGYHAAYGYWGQGTQVTVSS | high polyreactivity |
| QVQLVESGGGLVQAGGILRLSCAASGLIFKYNAMGWYRQAPGKERELVAAISTSGGSTYYADSVKGRFTISRDNAKNTVYLQMNSLKPEDTAVYYCNVAYIKTRLFRPYDYWGQGTQVTVSS | high polyreactivity |
| QVQLVESGGGLVKAGGSLRLSCAASGRTFRYNAMGWYRQPPGKERELVAVINSNGGSTYYADSVKGRFTISRDNAKNTVYLQMNSLKPEDTAVYYCAADYIRIQEYDYWGQGTQVTVSS | low polyreactivity |
| QVQLVESGGGLVQAGGSLRISCAASGSTFVSYAMGWYRQAPGKERELVATISWRGGSTYYADSVKGRFTISRDNAKNRDYLHMNSLNPEDTAVYYCAADLWHSQYYYGYEYWGQGSQVTVSS | low polyreactivity |
| QVQLQESGGGLVQAGGSLRLSCAASGTMSDRPGMGWYRQAPAKNAIVATIDRGTNTNYADSVKGRFTISRDNAKNTVSLQMNSLKPEDSAVYNCAAVGRYYFSLDYWGPGTQVTVSS | low polyreactivity |
| QVQLVESGGGLVQAGGSLRLSCAASGRTFGWNAMGWYRQAPGKERELVAAISRTGNTYYADSVKGRFTISRDNAKNTVYLQMNSLKPEDTAVYYCAKGRYYTPTYFRGVDLYDYWGQGTQVTVSS | low polyreactivity |
| QVQLVESGGGLVQAGGSLRLSCAASGIIFDCNSMGWYRQAPGKERELVAANTSSTDSTYYADSVKGRFTISRDNAKNTVYLQLNSLKPEDTAVYYCAAAYPSKTFDYWGQGTQVTESS | low polyreactivity |
| QVQLVESGGGLDQAGGSLRLSCADSGSIFYVYTMGWYRQAPGKERELVAAITSGDGTYYADSVKGRFTISRDNAKSTVYLQMNSLKPEDTAVYYCNADESAYWKLRHGLGSDSWGQGTQVTVSS | low polyreactivity |
| QVQLVESGGGLVQEGGSLRLRCAASGSIFPYNAMGWYRQAPGKERELVAAISSTGGRTYYADSVKGRFTISRDNAKNTVYLQMNSLKPEDTAVYYCAARLYDKPGFYSWGEGTQVTVSS | high polyreactivity |
| QVQLVESGGGLVQAVGSLRLSCAASGSTLVYYAMGWYRQAPGKERELVATITRSGGNTYYADSVKGRFTISRDNAKNTVYLQMNSLNPEDTAVYYWAARRLYGSQRGYWGQGTQVTVSS | high polyreactivity |
| QVQLVESVGGLVQAGGSLRLSCAASVNIFITNAMGWYRQAPGKERELVADISFSGGSTYYADSVKGRFTISRDTAKNTVYLQMNSLIPEDTAVYYCAARALASVSAHKYDYWGQGTQVTVSS | low polyreactivity |
| QVQLVESGGGLVQAGGSLRLSCAASGNTFTYYAMGWYRQAPGKERELVAAINIDVASTYYADSVKGRFTISRDIAKNTVYLQMNSLKPEDTAVYYCAAEVGVYPVYWYDYWGQGTQVTVSS | low polyreactivity |
| QVQLVESGGGLVHAGGRLRLSCAASGRIFWINAMGWSRQAPGKDRELVATISSGSTSYADSVKGRFTISRDNAKNTVYLQMNRLKPEATAVYYCAVTLRYTRSGAYDYWGQGTQVTVSS | low polyreactivity |
| QVQLVESGGRLVQAGRSLRLSCAASGFTFYDYAMVWYRQEPGKERELVARINGGGGTNYADSVKGRFTNSRDNAKNTVYLQMNSLKPEDTAVYYCAAEFGSRPPYDYWGQGTQVTVSS | low polyreactivity |
| QVQLVESGGGLVQAGGSLRLSCAASGRIFTRNAMGWYRQAPGKERELVAAIRWSGDSTYYADSVKGRFTISRDNAKNTVYLQMNSLKPEDTAVYYCAAYRQRSHRVGTKGHRVGYWGQVTQVTVSS | high polyreactivity |
| QVQLVESGGGLVQAGGSLRLSCAASGLTFLKYAMGWYRQAPGKERELVAAITGSGGRTYYADSVKGRFTISRDNSKNTVYLHMNSLKPEDTAVYYCAADDYFHDDYWGLGTQVTVSS | high polyreactivity |
| QVQLVESGGGLVQAGGSLRLSCASSGRTFRYYAKGWYRQAPGKERELVATISSGGSTNYADSVKGRFTISRDNAKNTVYFQMNSLKPEDTAVYYCAAAKYVTYLSIYYYWGQGTQVTVSS | high polyreactivity |
| QVQLVESGGGLVQAGGSLRLSCAASGNTFPLYAMGWYRQAPGKEREMVAAITSSAGSTYYADSVKGRFTISRDNAKNTVYLQMNSLKPEDTAVYYCNARRSDGKVVGYSYSHRNVEYWGQGTQVTVSS | low polyreactivity |
